Measured values from patent US20170101466A1 (published 2017).
Where a chain is given by its changes, count along the chain named. In names and notes the source's numbering stands. Each block holds one binder with its values, some of them ahead of it.

Experiments:
soluble human BLyS [1] = target: T1, soluble human BLyS (human, UniProt Q9Y275 134-285); assay: cell-based or functional assay
soluble human BLyS [2] = target: T1, soluble human BLyS; assay: DELFIA competition, Eu-hBLyS binding to coated BR3
Description: (§1) After 5× washing with 200 ul/well of DELFIA 1× wash solution (PE, Cat #4010-0010), plates were blocked with 3% BSA purified from trace heavy metal amounts (PE, Cat #CR84-100) for 3 hours with shaking at room temperature. Plates were washed again five times at 200 μl/well with DELFIA wash solution.
(§2) The final 3 wells across the plate served as controls (2 wells contained 2,000 pM mAbs for negative and background controls while the third contained no mAbs for positive control). […] After 18-24 hrs at 4° C., plates were read on PE EnVision plate reader with laser excitation, LANCE/DELFIA top mirror, and emission filter Eu-615 with a delay of 400 μs. Data were fit to four parameter (variable slope) inhibition dose response curve using GraphPad PRISM 5.0 software.

soluble mouse BLyS [3] = target: T2, soluble mouse BLyS (mouse, UniProt Q9WU72 127-309); assay: DELFIA competition, Eu-mBLyS binding to coated BR3
T2 construct: europium-labelled in DELFIA; also called mBLyS; mouse BAFF (BLyS)
Description: as §1, §2

soluble mouse BLyS [4] = target: T2, soluble mouse BLyS; assay: Biacore
soluble human BLyS [5] = target: T1, soluble human BLyS; assay: Biacore
soluble cynomolgus BLyS = target: T3, soluble cynomolgus BLyS (cynomolgus, UniProt A0A2K5V2X4 134-285); assay: ELISA, soluble cyBLyS
T3 construct: Soluble form; also called cyBLyS; Soluble cyBLyS

human APRIL = target: T4, human APRIL (human, UniProt O75888 105-250, limits assumed); assay: Biacore, antibody captured, APRIL injected
T4 construct: Bought recombinant protein; also called hAPRIL
T4 sequence (looked up): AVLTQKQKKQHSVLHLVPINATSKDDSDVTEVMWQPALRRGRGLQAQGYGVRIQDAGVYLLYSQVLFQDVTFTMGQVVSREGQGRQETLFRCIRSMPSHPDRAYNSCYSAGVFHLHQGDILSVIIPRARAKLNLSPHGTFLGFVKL
Description: (§3) Recombinant protein NG (Thermo Scientific, Cat #21186) was diluted to 100 μg/ml in 10 mM Sodium Acetate pH 4.0 and then immobilized on the surface of a pre-activated Series S CM4 Biacore chip (GE, Cat #BR-1005-34) using amine coupling. […] Binding response was measured as the difference in total RU increase during 300 second APRIL injection of each individual flow cell and the reference flow cell (e.g., Flow cell 2-1).

mouse APRIL = target: T5, mouse APRIL (mouse, UniProt Q9D777 96-241, limits assumed); assay: Biacore, antibody captured, APRIL injected
T5 construct: Bought recombinant protein; also called mAPRIL
T5 sequence (looked up): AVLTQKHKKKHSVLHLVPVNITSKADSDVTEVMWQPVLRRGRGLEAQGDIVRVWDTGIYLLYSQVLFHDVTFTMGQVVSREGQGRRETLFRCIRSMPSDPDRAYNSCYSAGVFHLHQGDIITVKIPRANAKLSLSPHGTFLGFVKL
Description: as §3

soluble human BLyS [6] = target: T1, soluble human BLyS; assay: blocking of biotinylated soluble hBLyS binding to immobilized mBR3
soluble human BLyS [7] = target: T1, soluble human BLyS; assay: DELFIA competition, Eu-hBLyS binding to coated TACI
Description: as §1, §2

soluble human BLyS [8] = target: T1, soluble human BLyS; assay: ELISA, soluble hBLyS
soluble mouse BLyS [9] = target: T2, soluble mouse BLyS; assay: DELFIA competition, Eu-mBLyS binding to coated TACI
Description: as §1, §2

soluble mouse BLyS [10] = target: T2, soluble mouse BLyS; assay: DELFIA competition, Eu-mBLyS binding to coated BCMA
Description: as §1, §2

soluble human BLyS [11] = target: T1, soluble human BLyS; assay: DELFIA competition, Eu-hBLyS binding to coated BCMA
Description: as §1, §2

soluble mouse BLyS [12] = target: T2, soluble mouse BLyS; assay: Biacore, antibody captured on chip, BLyS injected, 1:1 model, 25 C
Description: (§4) Recombinant protein NG (Thermo Scientific, Cat #21186) was diluted to 100 μg/ml in 10 mM sodium acetate pH 4.0 and then immobilized on the surface of a pre-activated Series S CM5 Biacore chip (GE, Cat #BR-1005-34) using amine coupling. […] After the dissociation period, the chip was regenerated back to baseline by injecting 10 mM glycine pH 1.5 for 120 seconds over the four flow cells. […] The entire data set was fit to a 1:1 interaction model to give kₒₙ, koff, and Kd values. The assay was run at 25° C. in 1× biacore running buffer HBS-EP+ (GE, Cat #BR-1006-69).

soluble human BLyS [13] = target: T1, soluble human BLyS; assay: as above
Description: as §4

soluble mouse BLyS [14] = target: T2, soluble mouse BLyS; assay: ELISA, soluble mBLyS
soluble mouse BLyS [15] = target: T2, soluble mouse BLyS; assay: cell-based or functional assay
soluble mouse BLyS [16] = target: T2, soluble mouse BLyS; assay: Biacore T100, binder captured by anti-human Fc, BLyS injected, 1:1 model
Description: (§5) A Series S CM5 Chip (GE Healthcare) was amine coupled with an anti-human Fc capturing antibody (GE Healthcare Human Fc Kit) to >10,000 RUs. Sample antibodies were diluted in 1×HBS-EP+ running buffer to 0.15 ug/mL and injected for 45 seconds at 10 uL/min. […] Biacore Evaluation software was used to fit the data to a 1:1 Binding Model.

soluble human BLyS [17] = target: T1, soluble human BLyS; assay: as above
Description: as §5

B1: tabalumab (antibody, V domains shown)
VH: QVQLQQWGAGLLKPSETLSLTCAVYGGSFSGYYWSWIRQPPGKGLEWIGEINHSGSTNYNPSLKSRVTISVDTSKNQFSLKLSSVTAADTAVYYCARGYYDILTGYYYYFDYWGQGTLVTVSS
VL: EIVLTQSPATLSLSPGERATLSCRASQSVSRYLAWYQQKPGQAPRLLIYDASNRATGIPARFSGSGSGTDSTLTISSLEPEDFAVYYCQQRSNWPRTFGQGTKVEIKR
IC50 hBLyS stimulated, mouse splenic B-cell proliferation (soluble human BLyS [1]): 4 ng/mL
IC50 (soluble human BLyS [2]): 0.0899 nM
IC50 (soluble mouse BLyS [3]): > 2 nM

B2: 6C10 IgG expressed in HEK293 cells (antibody, V domains shown)
VH: EVQLVQSGAEVKKPGASVKVSCKASGYTFTSYGISWVRQAPGQGLEWMGWISAYNGNTNYAQKLQGRVTMTTDTSTSTAYMELRSLRSDDTAVYYCARTYYDILTGYYYYYGMDVWGQGTTVTVSS
VL: B1 VL with A9G, T20M, S30G, R31N, S71F, S76N, R96L, Q100G
notes: IgG from HEK293-FreeStyle cells; also called 6C10 (293)
Kd (soluble mouse BLyS [4]): 0.0216 nM
Kd (soluble human BLyS [5]): 0.51 nM
IC50 (soluble cynomolgus BLyS): 0.1 nM
binding result (human APRIL): no binding (tested: 50 nM)
binding result (mouse APRIL): no binding (tested: 50 nM)
IC50 (soluble human BLyS [6]): 0.33 nM
IC50 (soluble human BLyS [7]): 0.00067 nM
IC50 (soluble human BLyS [8]): 0.12 nM
IC50 (soluble mouse BLyS [9]): 0.679 nM
IC50 (soluble mouse BLyS [10]): 0.098 nM
IC50 (soluble human BLyS [2]): 0.121 nM
IC50 (soluble mouse BLyS [3]): 0.784 nM
IC50 (soluble human BLyS [11]): 0.0106 nM
Kd (soluble mouse BLyS [12]): 0.334 nM
koff (soluble mouse BLyS [12]): 6.7e-05 s⁻¹
kon (soluble mouse BLyS [12]): 200000 M⁻¹ s⁻¹
Kd (soluble human BLyS [13]): 0.434 nM
koff (soluble human BLyS [13]): 5e-05 s⁻¹
kon (soluble human BLyS [13]): 120000 M⁻¹ s⁻¹
IC50 (soluble mouse BLyS [14]): 0.05 nM

B3: 5B7 IgG1 F243A/V264A double mutein expressed in Pichia pastoris (antibody, V domains shown)
VH: QVQLVQSGAEVKKPGASVKVSCKASGGTFSSYAISWVRQAPGQGLEWMGGIIPIFGTANYAQKFQGRVTITADKSTSTAYMELSSLRSEDTAVYYCARVDYDILTGYYMGYFDYWGQGTLVTVSS
VL: B1 VL with E1D, L4M, R31S, S71F, R96I, K103R, V104L
notes: IgG1 F243A/V264A (EU) double mutein, alpha-2,6-sialylated, from glycoengineered Pichia pastoris; also called 5B7-DM; 5B7-DM Pichia
binding result (human APRIL): no binding (tested: 50 nM)
binding result (mouse APRIL): no binding (tested: 50 nM)
IC50 (soluble human BLyS [7]): 0.00051 nM
IC50 (soluble mouse BLyS [9]): < 0.0003 nM
IC50 mBLyS stimulated, mouse splenic B-cell proliferation (soluble mouse BLyS [15]): ≤ 1 ng/mL
IC50 hBLyS stimulated, mouse splenic B-cell proliferation (soluble human BLyS [1]): ≤ 1 ng/mL
Kd (soluble mouse BLyS [16]): 0.037 nM
koff (soluble mouse BLyS [16]): 0.000102 s⁻¹
kon (soluble mouse BLyS [16]): 2.73e+06 M⁻¹ s⁻¹
Kd (soluble human BLyS [17]): 0.068 nM
koff (soluble human BLyS [17]): 4.6e-05 s⁻¹
kon (soluble human BLyS [17]): 678000 M⁻¹ s⁻¹
IC50 (soluble mouse BLyS [10]): < 0.0003 nM
IC50 (soluble human BLyS [2]): 0.0377 nM
IC50 (soluble mouse BLyS [3]): 0.094 nM
IC50 (soluble human BLyS [11]): 0.0016 nM
Kd (soluble mouse BLyS [12]): 0.065 nM
koff (soluble mouse BLyS [12]): 4e-05 s⁻¹
kon (soluble mouse BLyS [12]): 620000 M⁻¹ s⁻¹
Kd (soluble human BLyS [13]): 0.179 nM
koff (soluble human BLyS [13]): 3.5e-05 s⁻¹
kon (soluble human BLyS [13]): 190000 M⁻¹ s⁻¹

B7: belimumab (antibody, V domains shown)
VH: QVQLQQSGAEVKKPGSSVRVSCKASGGTFNNNAINWVRQAPGQGLEWMGGIIPMFGTAKYSQNFQGRVAITADESTGTASMELSSLRSEDTAVYYCARSRDLLLFPHHALSPWGRGTMVTVSS
VL: SSELTQDPAVSVALGQTVRVTCQGDSLRSYYASWYQQKPGQAPVLVIYGKNNRPSGIPDRFSGSSSGNTASLTITGAQAEDEADYYCSSRDSSGNHWVFGGGTELTVLG
IC50 hBLyS stimulated, mouse splenic B-cell proliferation (soluble human BLyS [1]): 18 ng/mL
Kd (soluble mouse BLyS [16]): 0.0635 nM
koff (soluble mouse BLyS [16]): 0.000125 s⁻¹
kon (soluble mouse BLyS [16]): 1.98e+06 M⁻¹ s⁻¹
Kd (soluble human BLyS [17]): 0.167 nM
koff (soluble human BLyS [17]): 8.55e-05 s⁻¹
kon (soluble human BLyS [17]): 506000 M⁻¹ s⁻¹
IC50 (soluble mouse BLyS [3]): > 2 nM

The remaining lines, values ahead:

Kd (soluble mouse BLyS [4]): 0.0224 nM
Kd (soluble human BLyS [5]): 4.26 nM
IC50 (soluble cynomolgus BLyS): 0.32 nM
IC50 (soluble human BLyS [6]): 2.97 nM
IC50 (soluble human BLyS [8]): 16 nM
IC50 (soluble mouse BLyS [14]): 0.05 nM
B4: 8A12 IgG expressed in HEK293 cells (antibody, V domains shown)
VH: QVQLVQSGGGLVQPGGSLRLSCAASGFTFSSYAMSWVRQAPGKGLEWVSAISGSGGSTYYADSVKGRFTISRDNSKNTLYLQMNSLRAEDTAVYYCAREGQGYDILTGYYTRGYYFDYWGQGTLVTVSS
VL: QSALTQPASVSGSPGQSITISCTGTSSDVGGYNYVSWYQQLPGKAPKLMIYEVSKRPSGVPDRFSGSKSGNTASLTISGLQAEDEADYYCSSYAGSSSWVFGGGTKLTVLG
notes: IgG from HEK293-FreeStyle cells

Kd (soluble mouse BLyS [4]): 0.028 nM
Kd (soluble human BLyS [5]): 0.66 nM
IC50 (soluble cynomolgus BLyS): 0.08 nM
binding result (human APRIL): no binding (tested: 50 nM)
binding result (mouse APRIL): no binding (tested: 50 nM)
IC50 (soluble human BLyS [6]): 10 nM
IC50 (soluble human BLyS [7]): < 0.0003 nM
IC50 (soluble human BLyS [8]): 0.13 nM
IC50 (soluble mouse BLyS [9]): > 2 nM
IC50 (soluble mouse BLyS [10]): > 2 nM
IC50 (soluble human BLyS [2]): 0.0622 nM
IC50 (soluble mouse BLyS [3]): > 2 nM
IC50 (soluble human BLyS [11]): 0.63 nM
IC50 (soluble mouse BLyS [14]): 0.16 nM
B5: 8D12 IgG expressed in HEK293 cells (antibody, V domains shown)
VH: QVQLVQSGAEVKKPGASVKVSCKASGYTFTSYAMHWVRQAPGQRLEWMGWINAGNGNTKYSQKFQGRVTITRDTSASTAYMELSSLRSEDTAVYYCARAYYDILTGYSVYGMDVWGQGTTVTVSS
VL: EIVLTQSPATLSLSPGERATLSCRANESVGNYLAWYQQKPGQAPRLLIYGASRRATGIPDRFSGSGSGTDFTLTISRLEPEDFAVYYCQQYGSSLLTFGGGTKVEIKR
notes: IgG from HEK293-FreeStyle cells; also called 8D12 (293)

Kd (soluble mouse BLyS [4]): 0.0456 nM
Kd (soluble human BLyS [5]): 1.1 nM
IC50 (soluble cynomolgus BLyS): 0.07 nM
IC50 (soluble human BLyS [6]): 5.31 nM
IC50 (soluble human BLyS [8]): 0.15 nM
IC50 (soluble mouse BLyS [14]): 0.07 nM
B6: 9F8 IgG expressed in HEK293 cells (antibody, V domains shown)
VH: QVQLQQSGAEVKKPGASVKVSCKASGYTFTSYYMHWVRQAPGQGLEWMGWINAGNGNTKYSQKFQGRVTITRDTSASTAYMELSSLRSEDTAVYYCARDNLSYDILTGYSFGGWFDPWGQGTLVTVSS
VL: QSALTQPASVSGSPGQSITISCTGTSSDIGRYNYVSWYQQRPGRAPKVIIYDVSSRPSGVSKRFSASKSGNTASLTISGLQAEDEAVYYCSSYTRITTLYVFGPGTKVTVLG
notes: as for B4
